Laboratory results taken from the nanobody polyreactivity screen of Harvey et al. (2022).

Assay: yeast display, Sf9 membrane polyspecificity reagent, FACS + sequencing; frameworks hold sequencing errors
In short: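 Nanobodies came from a synthetic yeast display library in Saccharomyces cerevisiae BJ5465, induced with galactose for 36–48 hours and stained for 1 hour at 4 °C with 10% biotinylated, detergent-solubilized Sf9 membrane reagent. Cells were enriched on streptavidin microbeads and then FACS-sorted, with low and high (top ~1%) gates set on anti-HA fluorescence for expression and streptavidin fluorescence for reagent binding. Each polyreactivity label reflects the gate a clone came from. Genes were amplified by colony PCR, sequenced by MiSeq 2 × 250 and filtered by CDR length.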

Sequence | polyreactivity (PSR sort gate)
QVQLQESGGGQVQAGGSLRLSCAASGYISTHYFMGWYRQAPGKDREFVAGISNGSITNYADSVKGRFTISRDNARNTVYLQMNSLKPEDTAVYYGAAYDWTYVRFGYWGQGTQVTVSG | high polyreactivity
QVQLVESGGGLVQAGGSLRLSCAASGIIFYRNAMGWYRQAPGKERELVAAISSSGGRTYYADSVKGRFTISRDNAKNTVYLQMNSLKPEDTAVYYCAADYQWFWVWYGYWGQGTQVTVSS | high polyreactivity
QVQLVESGGGLVQAGGSLRLSCAASGRILRSYAMGWYRQAPGKERELVAAISWRGGSTYYADSVKGRFTISRDNAKNTVYLQMNSLKPEDTAVYYCAKRSYYPARYDYWGQGTQVTVSS | high polyreactivity
QVQLVESGGGLVQAGGSLRLSCAASGFIFGPYTMGWYRQAPGKERELVAAINNSGSTNYADSVKGRFTISRDNAKNTVYLQMNCLKPEDTAVYFCAAEPIIFVRYDYWGQGTQVTVSS | low polyreactivity
QVQLVESGGGLVQAGGSLRLSCAASGSIFPNNDMGWYRQAPGKERELVAAITTRGTSTYYADSVKGRFTISRDNAKNTVYLQMNSLKPEDTAVYYCAVGRRGDSAGGVAYYYWGQGTQVTVSS | low polyreactivity
QVHLVESGGGLVQAGGSLRLSCAASGFTFGVYAMGWYRQAPGKERELVAAISRRGTSTYYADSVKGRFTISRDTAKYTVYLQMNSLKPEDTAVYYCNARRYQVTVDHWGQGTQVTVSS | high polyreactivity
QVQLVESGGGLVQAGGSLRLSCAASGIIFSSYVMGWYRKATGKERELVAAISSRGVSTYYADSVKGRFTISRDNAKNTVYLQMNSLKPEDTAVYYCNAKDKQGRKQFKLCAGYYLGQGTQVTVSS | high polyreactivity
QVQLVESGGGLVQAGGSLRLSCAASGRTFFWNAMGWYRQAPGKERELVAAITWSGGSTYYADSVKGRFTISRDNAKTTVYLQMNSLKPEDTAVYYCAAVVSDYVWRYEYWGQGTQVTVSS | low polyreactivity
QVQLVESGGGLVQAGGSLRLSCAASGLIIPFYAMGWYRQAPGKERELVAAISWSAGSTYYADSVKGRFTISRDNAKNTVYLQMNSLKPEDTADYYCATERNPADFYWGQGTQVTVSS | low polyreactivity
PVQLQQSGSGLVQAGGSLRLSCAASGYISLGDNKGWYRQAPGKEREFDATISVGGITYYVDSVKGPFTISRDIAKNTVYLQMNSVKPEDTAVYYCAALDIYYLRYYYWGQGTQVTLSS | low polyreactivity
QVHLVESGGGLVQARGSLRLSCAASGITFRYYTMGLYRQAPVKERELVAVISWSGGSTYYADSVKGRFTISRDNAKNTVYFQMNSLKPEDTAVYYCAAVRRISRYDYWGQGTQVTVSS | high polyreactivity
QVQLVESGGGLVQAGGSLRLSCAASGSTLYRYAMGWYRQAPGKEREFVAAISVSGARTYYADSVKGRFTISRDNAKNTVYLQMNSLKPEDTAVYYCAARGGYQYDYWGQGTQVTVSS | high polyreactivity
QVQLVESGGGLVQAGGSLRLSCAASGSIFNGYAMGWYRQAPGKVRELVAAISWNGGRTYYADSVKGRFTISRDNAKNTVYLQKNSLKPEDTAVYYCNKVSGYDVDYWGQGTQVTVSS | high polyreactivity
QVQLVESGGGLVQAGGSLRLSCAASGITFGDYAMGWYRQAPGKEMEMVAGINWSGDGTYYADSVKGRFTISRDNAKNTVYLQMNSLKPEDTAVYYCNARGIPLYSYRDYRFVVLNFDYWGQGTQVTVSS | low polyreactivity
QVQLVESGGGLVQAGGSLRLSCAASGFIFARYAMGWYRQAPGKEREFVAAITWSGGTTYYADSVKGRFTISRDYAKNTVYFQMNSLKPEDTAVYYCAARWGKTLWQYNYWGQGTQVTVSS | high polyreactivity
QVQLVESGGGLVQAGGSLRLSCAASGSTFPVNTMGWYRQAPGKERELVAAISWSGGRTYYADSVKGRFTISRDNAKNTVYLQMNSLKPEDTAVYYCAAEWEGTYTTVPDEFNYWGQGTQVTVSS | high polyreactivity
QVQLVESGGGLVQAGGSLRLSCAASGSTFYRYAMGWYRQAPGKERELVAAINTGGSTNYADSVKGRFTISRDNAKNTVYLQMNSLKPEDTAVYYCAARFQYYRKYDYWGQGTQGTVSS | low polyreactivity
QVQLVESGGGLVQAGGSLRLSCAASGRTFPYNAMGWYRQAPGKERELVAAITWSGGSTYYADSVKGRFTISRDNAKNTVYLQMNSLKPEDTAVYYCNKDFPVFEYDYWGQGTQVTVSS | low polyreactivity
QVQLVESGGGLVQAGGSLRLSCAASARIFFTYVMGWYRQAHGKEREFVAAITFSDGTTYYADSVKGRFTISRDNAKNTVYLQMNSLKPEDTAVYYCNTDSFYGFVYPWTISSEVDYWGQGTQVTVSS | low polyreactivity
QVQLVESGGGLVQAGGSLRLSCAASGRIFSFYVMGWYRQEPGKERELVAAIDNGGGSTYYADSVKGRFTISRDNAKNTVYLQMNSLKPEDTAVYYCAAEVYDSDSEYYYWGQGTQVTVSS | low polyreactivity
QVQLVESGGGLVQAGGSLRLSCAASGIIFERYAMGWYRQAPGKERELVATISWSGGSTRYADSVKGRFTISRDNAKNTVYLQMNSLKPEDTAVYYCAAPSYFRMGYWGQGTQVTVSS | low polyreactivity

Sequence | polyreactivity (PSR sort gate)
QVQLVESGGGLVQAGGSLRLSCAASGFIFYSYAMGWYRQAPGKERELVAAIDWDDGTTYYADSVKGRFTISRDNAKNTVYLQMNSLNPEDTAVYYCAAESYYGAYDYWGQGTQVTVSS | high polyreactivity
QVQLVESGGGLVQAGGSLRLSCAASGGTFSNYAMGWYIPAPGKERELVAAITSGGGSTYYADSVKGRFTISRDNAKNTVYLQMNSLKPEDTAVYYCAARRSSYGYWGQGTQVTVSS | high polyreactivity
QVQLVESGGGLVQAGGSLRLSCAASGSIFQYYGMGWYRQAPGKERELVASISRSGGSTYYADSVKGRFTISRDNAKNTVYLQMNSLKPEDTAVYYCNKRTYRQLSSWDYTYYYWGQGTQVTVSS | low polyreactivity
QGQLVESGGGLVQAGGSLRLSCAASGRTFRYNAMGWYRQAPGKERELVAAITWGGGSTDYADSVKGRFTISRDNAKNTVYLQMHSLKPEDTAVYYCNADYIGNYHSIYQYDYWGQGTQVTVSS | low polyreactivity
QVQVVESGGGLVQAGGSLRLSCAASGSTFGVYAMGWYRQAPGKEWELVAAISASTGSTYYADSVKGRFTISRDNAKQTVYLQMNSRKPEHTAVYYCAAAGYGKVRGDYWGQGTQVTVTS | low polyreactivity
QVQLVESGGGLVQAGGSLRLSCAASGSTFEVNAMGWYRQAPGKERELVATITRSGGSTYYADSVKGRFTISRDNAKNTVYLQMNSLKPEDTAVYYCNAMWELKWGQGTQVTVSS | low polyreactivity
QVQLVESGGGLVQAGGSLRLSCAASGFIFEWYAMGWYRQAPGKERELVAGIDSGSTYADSVKGRFTISRDNAKNTVYLQMNSLKPEDTAVYYCAKRSDAVIQRTYRYDYWGQGTQVTVSS | low polyreactivity
QVQLVESGGGLVQAGGSLRLSCAASGSTFSDYAMGWYRQAPGKERELVAGITGGGGTYYADSVKGRFTISRDNAKNTVYLQMNSLKPEDTAVYYCAAGRRHGFGYWGQGTQVTVSS | low polyreactivity
QVQLVESGGGLVQAGGSLRLSCAASGRTFIYNTMGWYRQAPGKERELFAAISSGGSTNYADSVKGRFTISRDNAKNTVYLQMNSLKPEDTAVYYCATQGLSAPFDGFVNSRFDHRGQGTQVTVSS | low polyreactivity
QVQLVESGGGLVQAGGSLRLSCAASGLIFLYYAMGSYRQAPGKERELVAAIRTNYADSVKGRFTISRDNAKNTVSLQMNSLKPEDTAVYYCIAVSGDSGDYWGQGTQVTVSS | low polyreactivity
QVQLVESGGGLVQAGGSLRLSCAASGSIFFYYAMGWYRQAPGKDRELVAAITSSGDSTYYADSVKGRFTISRDNAKNTVYLQMNSLKPEDTAVYYCAALYIGYTGYYYWGQGTQVTVSS | low polyreactivity
QLQLVESGGGLVQAGGSLRLSCAASGSTQGVYAMGSYRQAPGKERELVAAISRSGGRTYYADSVKGRFTISRDNAKNTVYLQMNSLKPEDTAVYYCAADYYLWVYWYDYWGQGTQVTVSS | high polyreactivity
QVQLVESGGGLVQAGGSLRLSCAASGFAVSYYAMAWYRQAPGKEREFVASSDWSGGSTYYADSVKGRFTISRDNAKNTVYLQMNSLKPEYTAVYYCAAELVYFPGYDYWGQGTQVTVSS | low polyreactivity
QVQLVESGVGLVQAGGSLRLSCAASGRIFEDNAMGWYRQAPGKERELVAAIDFSGGDTYYADSVKGRFTISRDNAKNTVYLQMYSLKPEDTAVYYCAAGRSGWGYVSWGQGTQVTVSS | low polyreactivity
QVQLVESGGGLVQAGGSLRLSCAASGSTSPYYDRGWSRQAPGKERELVAAITSGGSTNYADSVKGRFTISRDYAKNSVYLQMNSLKPEDTAVYYCATDWSDDLWTWYYYWGQGTQVTVSS | high polyreactivity
QVQLVESGGGLFQAGGSLRLSCAASGFIFYDNAIGWYRQAPGKERELVASISVSGGSTYYADSVKGRFTISRDKAKNTVYLHMNSLKAEDTAVYYCAASYRDGHIRHDYWGQGTQVTVSS | low polyreactivity
QVQLVESGGGLVQAGGSLRLSCAASGRTFVVYGMGWYRQAPGKERELVATITSGGSTDYADSVKGRFTIARDNAKNTVYLQMNSLKPEDTAVYYCAKETSYTNDDDYWGQGTQVTVSS | low polyreactivity
QVQLVESGGGLVQAGGSLRLSCAASGSTFDSYAMGWYRQAPGKERELVASITSNDGSTSYADSVKGRFTISRDNAKNTVYLQMNSLKPEDTAVYYCATTFQYYWFSLYDYWGQGTQVTVSS | low polyreactivity
QVQLVDSGGGLVQAGGSLRLSCAASGSIFVTYAMGWSRQAPAKERELVAAITDRGGSTYADSVKGRFTISRDNAKNTVYLQMNSLKPEDTAVYYCAADPDLGDAYDYWGQGTQVTVSS | low polyreactivity
QVQLVESGGGLVQAGGSLRLSCAASGPTFPFNAMVWYRQAPGKERELVAAISWRDGRTYYADSVKGRFTISRDNAKNTVYLQMNSLKPEDTAVYYCNVVKRRSDWGMVYWGQGTQVTVSS | high polyreactivity
